The values that follow come from publication PMC3162038.

Substrate in the data set: N[C@H]1C[C@H](COP(=O)(O)O)[C@@H](O)[C@H](O)[C@H]1O
In words: PK/LDH coupled colorimetric assay at A340, Hanes-Woolf plot. The data set is classed as biochemical, Streptomyces hygroscopicus. The following applies: 300 μM GDP-valienol, 50 mM Tris-HCl pH 7.5, 5 mM MgCl2, apparent.

B1: VldE (Streptomyces hygroscopicus subsp. limoneus) (protein)
chain: MTGSEIFLASKRAAITYDTDPATGEPRAWLAPGGTGNVVAEQAGVLNISWIASADSEDDRRASALNPDGVTMELHSGREILVRLIRHDPAVFRNVQNFMTANLMWAANNYGWDRWTQPSFGSDAREGWADFGRFTRDFADAILKSSAQSADPVYLVHDYQLVGVPALLREQRPDAPILLFVHIPWPSADYWRILPKEIRTGILHGMLPATTIGFFADRWCRNFLESVADLLPDARIDREAMTVEWRGHRTRLRTMPLGYSPLTLDGRNPQLPEGIEEWADGHRLVVHSGRTDPIKNAERAVRAFVLAARGGGLEKTRMLVRMNPNRLYVPANADYVHRVETAVAEANAELGSDTVRIDNDNDVNHTIACFRRADLLIFNSTVDGQNLSTFEAPLVNERDADVILSETCGAAEVLGEYCRSVNPFDLVEQAEAISAALAAGPRQRAEAAARRRDAARPWTLEAWVQAQLDGLAADHAARTATAERFDTAPAVSTRADL
In general, Km refers to the substrate concentration at which the rate is half of its maximum. With B1, the Km is 308.0 ± 34.5 µM.
